Assay results: patent US20230330251A1, “METHODS FOR TREATING CANCERS WITH ANTIBODY DRUG CONJUGATES (ADC) THAT BIND TO 191P4D12 PROTEINS” (AGENSYS, INC., priority 2020, published 2023)

System: subjects with previously treated locally advanced or metastatic urothelial cancer
Assay: EV-301: safety, adverse events (safety analysis set, NCI-CTCAE v4.03, MedDRA)
[1] = Grade Any, N = 296 EV, 291 chemotherapy
[2] = Grade ≥3, N = 296 EV, 291 chemotherapy
[3] = MedDRA v23.0, N = 296 EV, 291 chemotherapy
[4] = No baseline PN, n = 241 EV, 233 chemotherapy
[5] = PY = 132.3 EV, 96.1 chemotherapy
[6] = any event, N = 296 EV, 291 chemotherapy

Source text: The Safety Analysis Set (SAF) will be used for the safety analysis. All subjects who are randomized and received study drug will be included in the SAF. The frequency of AEs and the serious AEs will be summarized by MedDRA system organ class and preferred term. In addition, summary statistics will be provided for the following safety parameters: • Laboratory values • Vital sign measurements • ECOG PS
An AE is any untoward medical occurrence in a subject, temporally associated with the use of a medicinal product, whether or not considered related to the medicinal product. An AE can therefore be any unfavorable and unintended sign (including an abnormal laboratory finding), symptom, or disease (new or exacerbated) temporally associated with the use of a medicinal product.
AEs, including abnormal clinical laboratory values, will be graded using the NCI-CTCAE guidelines (Version 4.03).
The safety analysis set (SAF), which consists of all subjects who received any amount of study drug, will be used for safety analyses.
SAF was used to perform all safety analysis. All treated subjects were analyzed according to the treatment they received.
The number and percentage of AEs by severity were also summarized. All AEs were listed.
A study drug-related TEAE is defined as any TEAE with a causal relationship of YES by the investigator. AEs of interest as classified by customized MedDRA queries and/or standard MedDRA queries were also summarized.

enfortumab vedotin
TRAE of special interest: Infusion-related reactions, % [1]: 8.8% | TRAE of special interest: Infusion-related reactions, Local events, % [1]: 1.0% | TRAE of special interest: Infusion-related reactions, Systemic events, % [1]: 7.8% | TRAE of special interest: Ocular disorders, % [1]: 18.6% | TRAE of special interest: Peripheral neuropathy, % [1]: 46.3% | TRAE of special interest: Peripheral neuropathy, Motor events, % [1]: 7.4% | TRAE of special interest: Peripheral neuropathy, Sensory events, % [1]: 43.9% | TRAE of special interest: Rash, % [1]: 43.9% | TRAE of special interest: Severe cutaneous adverse reaction, % [1]: 20.3% | TRAE of special interest: Skin reactions, % [1]: 47.0% | TRAE: Alopecia, Number of patients [2]: 0 | TRAE: Anemia, Number of patients [2]: 8 | TRAE: Anemia, percent [2]: (2.7) percent | TRAE: Any adverse event, Number of patients [2]: 152 | TRAE: Any adverse event, percent [2]: (51.4) percent | TRAE: Decreased appetite, Number of patients [2]: 9 | TRAE: Decreased appetite, percent [2]: (3.0) percent | TRAE: Decreased neutrophil count, Number of patients [2]: 18 | TRAE: Decreased neutrophil count, percent [2]: (6.1) percent | TRAE: Decreased white-cell count, Number of patients [2]: 4 | TRAE: Decreased white-cell count, percent [2]: (1.4) percent | TRAE: Diarrhea, Number of patients [2]: 10 | TRAE: Diarrhea, percent [2]: (3.4) percent | TRAE: Dysgeusia, Number of patients [2]: 0 | TRAE: Fatigue, Number of patients [2]: 19 | TRAE: Fatigue, percent [2]: (6.4) percent | TRAE: Febrile neutropenia, Number of patients [2]: 2 | TRAE: Febrile neutropenia, percent [2]: (0.7) percent | TRAE: Maculopapular rash, Number of patients [2]: 22 | TRAE: Maculopapular rash, percent [2]: (7.4) percent | TRAE: Nausea, Number of patients [2]: 3 | TRAE: Nausea, percent [2]: (1.0) percent | TRAE: Neutropenia, Number of patients [2]: 14 | TRAE: Neutropenia, percent [2]: (4.7) percent | TRAE: Peripheral sensory neuropathy, Number of patients [2]: 9 | TRAE: Peripheral sensory neuropathy, percent [2]: (3.0) percent | TRAE: Pruritus, Number of patients [2]: 4 | TRAE: Pruritus, percent [2]: (1.4) percent | TEAE with special safety interest: Any corneal disorders (SMQ), % [3]: (1.0%) | TEAE with special safety interest: Any hyperglycemia (SSQ/CMQ), % [3]: (11.8%) | TEAE with special safety interest: Any infusion related reactions (SSQ/CMQ), % [3]: (9.1%) | TEAE with special safety interest: Any peripheral neuropathy (SMQ), % [3]: (50.3%) | TEAE with special safety interest: Any rashes or severe cutaneous adverse reactions, % [3]: (53.7%) | Treatment-emergent Hyperglycemia, % [4]: (5.8) % | Treatment-emergent Peripheral motor neuropathy, % [4]: (9.1) % | Treatment-emergent Peripheral neuropathy, % [4]: (50.6) % | Treatment-emergent Peripheral sensory neuropathy, % [4]: (48.5) % | most frequent Grade 3 or greater adverse event(s): rash, hyperglycemia, decreased neutrophil count, fatigue, anemia and decreased appetite, share of patients (PADCEV arm): more than 5% | Grade ≥3 severity TEAE, E (number of events) [5]: 617 | Grade ≥3 severity TEAE, E/PY [5]: (4.7) E/PY | Grade ≥3 severity TRAE, E (number of events) [5]: 320 | Grade ≥3 severity TRAE, E/PY [5]: (2.4) E/PY | Overall TEAE, E (number of events) [5]: 5051 | Overall TRAE, E (number of events) [5]: 3033 | Serious TEAE, E (number of events) [5]: 314 | Serious TRAE, E (number of events) [5]: 114 | TEAE Leading to death, E (number of events) [5]: 21 | TEAE Leading to death, E/PY [5]: (0.2) E/PY | TEAE Leading to death, excluding disease progression, E (number of events) [5]: 11 | TEAE Leading to death, excluding disease progression, E/PY [5]: (0.1) E/PY | TEAE Leading to dose interruption, E (number of events) [5]: 536 | TEAE Leading to dose interruption, E/PY [5]: (4.1) E/PY | TEAE Leading to dose reduction, E (number of events) [5]: 170 | TEAE Leading to dose reduction, E/PY [5]: (1.3) E/PY | TEAE Leading to treatment withdrawal, E (number of events) [5]: 66 | TEAE Leading to treatment withdrawal, E/PY [5]: (0.5) E/PY | TRAE Leading to death, E (number of events) [5]: 7 | TRAE Leading to death, E/PY [5]: (0.1) E/PY | TRAE Leading to death, excluding disease progression, E (number of events) [5]: 7 | TRAE Leading to death, excluding disease progression, E/PY [5]: (0.1) E/PY | TRAE Leading to dose interruption, E (number of events) [5]: 384 | TRAE Leading to dose interruption, E/PY [5]: (2.9) E/PY | TRAE Leading to dose reduction, E (number of events) [5]: 165 | TRAE Leading to dose reduction, E/PY [5]: (1.2) E/PY | TRAE Leading to treatment withdrawal, E (number of events) [5]: 51 | TRAE Leading to treatment withdrawal, E/PY [5]: (0.4) E/PY | TRAE Leading to dose interruption, % [6]: (51.0) % | TRAE Leading to dose reduction, % [6]: (32.4) % | TRAE Leading to dose withdrawal, % [6]: (13.5) % | Adverse events, regardless of relationship to treatment, that resulted in death (excluding disease progression) during the treatment period (in vivo): 11 patients | Investigator-assessed treatment-related adverse events that resulted in death (in vivo): 7 patients | Investigator-assessed treatment-related adverse events that resulted in death, % (in vivo): 2.4% | Skin reactions and peripheral neuropathy among treatment-related adverse events of special interest (in vivo): most frequent | Treatment-related adverse events of grade 3 or higher, rate after adjustment for treatment exposure (in vivo): 2.4 events per patient-year | time to first onset of grade ≥2 peripheral neuropathy, median (range) (in vivo): 4.435 (0.36, 12.02) months | treatment-related death: abnormal hepatic function (in vivo): 1 patient | treatment-related death: hyperglycemia (in vivo): 1 patient | treatment-related death: multiorgan dysfunction syndrome (in vivo): 2 patients | treatment-related death: pelvic abscess (in vivo): 1 patient | treatment-related death: pneumonia (in vivo): 1 patient | treatment-related death: septic shock (in vivo): 1 patient | Time to Onset of TRAE of special interest: Blurred vision, Median (range) (patients with the event): 2.448 months | Time to Onset of TRAE of special interest: Corneal disorders, Median (range) (patients with the event): 4.337 months | Time to Onset of TRAE of special interest: Dry eye, Median (range) (patients with the event): 1.906 months | Time to Onset of TRAE of special interest: Hyperglycemia, Median (range) (patients with the event): 0.559 months | Time to Onset of TRAE of special interest: Infusion-related reactions, Median (range) (patients with the event): 0.509 months | Time to Onset of TRAE of special interest: Peripheral neuropathy, Median (range) (patients with the event): 2.694 months | Time to Onset of TRAE of special interest: Skin reactions, Median (range) (patients with the event): 0.427 months | incidence of treatment-related adverse events (safety population): 93.9%
